Assay: soluble on expression in E. coli; label from the status in PepcDB or PDB records

Row | Sequence | soluble on expression in E. coli
1 | MVYDLAIIGGGINGCGIARDAAGRGHSVFLCEMNDLASGTSSWSTKLIHGGLRYLEYFEFRLVREALIERERLWQIAPHIIGPLRFVLPHHDGLRPAWRLRLGLFMYDYLGGRKLLPPTRSVDLAHDEVGKPLIPGRYTKGFEYSDCFVDDARLVVLTARDAAERGAEIRTRTRAVQVSQQGGIWQVTLEDVGSGARSTIQARALVNAAGPWVEGVLRSGAGVDARYKVRLVQGSHIVTRKLYDHDRAYIFQNADGRIVFAIPYQGDFTLIGTTDRDYHGDPSQVKATPEEIDYLCKAVSGYFAKPVTPADVVWTFSGVRPLYDDGASEAKAATRDYVFELDTPGGAPLLSIYGGKITTYRRLAEEALEKLSSYLKGGTAKQGWTAHQPLPGGDFPVDGGPALIGDLLREYPFLASAHASRLVHAYGTRARDVLGSAKSAADLGRDFGATLTEAEVRYLMSREWACSADDIVWRRSKLGLRLTPAAVAALDEWVIVHRAAEKPQQQAGGRALEHHHHHH | not soluble
2 | MASIKLYFDKRVNRKDGKFPLKINVTHKRQQALINLGVLLSPDQWDSTKGKVINGPNKSFLNGYISQRVHCAETELLNLRIAGKLDLMTGKQFKEHLQRILLRGKLEEKQEETGCSFVQYYTRFVEGKKNPQTKAVYQYTLDRICRFVDVPDKFRFEDVTYAWLKSFEIHLSETSKVNSISIHMRNIRAVFNDALNTETISCYPFRRFKIKQEATAKRALTPEELVTLRDYPCEEHQKQYVDIFMLIFYLVGINTVDLCRLEKIRNGRIEYRRAKTKKIYNIKVEPEAAEIIERYKGSKYLLNILERYKNYKDYAHRLNENLQEIGSVELVEKVINGKRRRVKKRFPLFPELTVYWARHTWATIAHKIGVSKDVISLALGHEFGCKTTSIYIDYDMEKVDKANRQVLDYLENLK | not soluble
3 | MSQWTTVCKLDDILPGTGVCALVEQQQIAVFRPRNDEQVYAISNIDPFAQASVLSRGIVAEHQDDLWVASPLKKQHFRLYDGFCLEDGAYSVAAYDTQVTNGNVQISIADSDVAVDNSQPLPLEHHHHHH | soluble
4 | KRKEMISARLGDGLSYLYMASATLKKYEDEGRQQGDLNFVHYAVQYCLYNAAKSLNEAYANFPVKYVGGVLKGLLFPLGNHFDKPSDELSVSIAEAMMTPGVQRDRLTHLCYIGKSENDSVGLMENAFLAMYDVKPLERKLMKAAKDGKVARKGLLPDRLQQALDAGVLTEQEVEKITAADQLRYKAIQVDHFSHDFSEVRTDSPKKSHLNPAA | not soluble
5 | MAGDPMVNRETLIARIEQELVQAEQAQHDHDFEKHMYAIHILTSLYASTSNTPHIGEQQMNRRIANHNQMPQSQITQPTHQVTAAEIEAMGGKVNTHSAHHHNKSYSQPSNQQQRLATDDDIGNGESIFDFLEHHHHHH | not soluble
6 | TPYRAMYQYRPQNEDELELREGDRVDVMQQCDDGWFVGVSRRTQKFGTFPGNYVAPV | soluble
7 | MAHHHHHHMGTLEAQTQGPGSMKNYRIESDSFGEIQIEEKFYWGAQTQRSLNNFKISKQKMPKILIRALAILKKCAAQVNYEFGDLEYKIATSIDKAIDRILAGEFEDNFPLVVWQTGSGTQTNMNMNEVIASIANEELTGKKGGKFPVHPNDHVNKGQSSNDSFPTAMHIATVLATKQQLIPALNNLLTYLQDKSKDWDKIIKIGRTHLQDATPLTLKQEFSGYITQIEYALERIEDALKKVYLLAQGGTAVGTGINSKIGFDIKFAQKVAEFTQQPFKTAPNKFESLAAHDALVEFSGTLNTIAVSLMKIANDIRLLGSGPRCGLGELHLPENEPGSSIMPGKVNPTQVEALTMVCTQVMGNHVTVTIAGSNGHLELNVFKPVIIYNILQSIELLSDSVNSFVTHCVKGLEPNIARINTLRDKSLMLVTVLNPHIGYDNAAKIAKEAHKYGITLKEAAKKLNFLSEEEFDKIVVPEKMIS | soluble
8 | MTIEGGEQEVNVSSGGAWQSSIHCDWMTLSPSSGGIGITKVRIKVKKNTSGLPRNGRIAIISGKEEKGITVMQSSIEGEEDYLRLLNLTIDGVTTAVDYVNNSYYLPIDMDAVQPAKVKVEFGGIGVDFIKIGDKKIKSGENIALSLNPGQNIEMEAGNNTIDKIRSCRLIVTGVPVIEISAPEGIEDENKRPCDIVLTDPKRRTNNSVLRFESYAGIEFRGAGALRYAKKSFSFKLKNRQTNENQDAKLLGLREDQSWILDAMWLDCSKMRNRVCFDLWNDFNTLYYSNTEPEAVNATHGYPVEMILDGAYHGLYILSDRIDRKQLKMKKKGGYLYKGKEWTDECKLQGINTPYSNSKQAWQGFESDYPDEVGEIEFKYLSDLIQFFAAASKEEFAAQYEERLDVSSLIDYFIFINLLSAYDNTGRNVFWGIYNVNLTLLPKFIIQPWDLDGTLGRTWDAIKLDPEKGLGFDNGLILRNDAGSKYFRPFERIMNENPNNIKRRIYERLMAVKDNVLSPANLASKVDYYKRQIVESGALERDRQRWTGYSMYGYANPEEEAEYIKSWYIARLKYLETIFNNF | not soluble
9 | MKHLKLIVVILATLALGCLIKSPASVKFEIDRTTIPPSGVFHLIVTLNNTGKVGIVDAKLVVEGEEFFIVQSPKLEHPIKVGDSAKLIWTIKGPKIPGNYHFKAYLDIVDELNRVWRGITYETTIKVSSEELKDSVNLNLTVPSKVQGGKIIIVSGEIVNNLTVPVNIVSAEVSAEDLEVIDKEVPNKIDANSKGKVVFKFKVPPRYEKVRMYVIIEYASLQVSGKLIGEKDILIVWKPWELSPEDVKDIYGNLSEWIFYNDIVDGYWEWMYGSKSKIENRTMFRESVEDLLSVANSDVEAAKAVYNHIVTNYVIEKRRIKTLDPQKIMESSSISPTEAEILMVAYLRSLNIPARIVSVYSETDCTYSPFVEAYLSGKWYVIDFNHMFFGTREEFIATRWYPKIYQEITVFGKSLVALKPSPSGHAHEDLTKEYLSITEKALFNHLSKSLDPSTFSQVRIMLNSMNNEDERIFAMFLFTSAKPEEAKQLLEKVHVNELKKTIDAFYKFYRDIPWEEDFRIYWEKLINLYRLEHHHHHH | not soluble
10 | MTIKKSQIEKWIAAQKRHRLSDTHVQMARELGLNPDKLGKIDNHRQEPWKAPLPEFIEEIFYKRFKKERPDVVKPLKQILKEQEIKTKTKKKEKEIRRKEREQEQINNGTDEVLTFQSPTPITE | not soluble
11 | GMTKLPATSDIYISFFMFTTNLQPDNLDYRRIVVAHIKKLQRFGYSGFEFPIAPGLPENYAQDLENYTNLRHYLDSEGLENVKISTNVGATRTFDPSSNYPEQRQEALEYLKSRVDITAALGGEIMMGPIVIPYGVFPTTDFNEPIWSDELQEHLKVRYANAQPILDKLGEYAEIKKVKLAIEPITHWETPGPNKLSQLIEFLKGVKSKQVGVVIDSAHEILDGEGPEIFKTQVEYLAQQGRLHYVQVSPPDRGALHTSWLPWKSFLTPIVKVYDGPIAVEIFNAIPAFTNSLRLTRRKFWIPDEDPPNQYPNAYDIADEAIKVTRKELKKIGSK | soluble
12 | MATLFIADLHLCVEEPAITAGFLRFLAGEARKADALYILGDLFEAWIGDDDPNPLHRQMAAAIKAVSDSGVPCYFIHGNRDFLLGKRFARESGMTLLPEEKVLELYGRRVLIMHGDTLCTDDAGYQAFRAKVHKPWLQMLFLALPLFVRKRIAARMRANSKEANSSKSLAIMDVNQNAVVSAMEKHQVQWLIHGHTHRPAVHELIANQQPAFRVVLGAWHTEGSMVKVTADDVELIHFPFLEHHHHHH | not soluble
13 | MKLDKIDNKNRRIRKKLFLGEFAILGFEISCETDINDFDRYDAFVDDFIDYIDTLGLCFGGGGLELFEGFLCSTERYGSATEEQKAQVVAWLEARPEVKSAKAGDLLDANYL | soluble
14 | MKKICMKNGMKIIYEYRESDITSFCVAFNAGAEREGKKERGLAHVVEHCIFKGTKKRSEAQINSEFDEIFGFNNAMTNFPYVIYYGTTLSKDFEKGFELYSDIIVNPTFSEEGFEEEKSIICEELTEWKDDKQQFCEDELLKNSFSNIRLKECIIGNEKNIKDFSIDELRKFYKKYYTSDNCVIGIVTSLKEEEVTDIINNYMTLSKREKPSLFDYEYEKNTSGIFTSKMDVKGAVIQYLFPIYKLKDDEIKALRAFNVIFGEGTSSMLYDKIRTKYGLAYDIYSKINNDGGIKLFYIGLGTASENFDKSIEFVNDTICEAKNLKGQFSSDKLLKIEKTMSLKRSLKLERSIQLAKELATYELMYGKAENVYDEVKDINLLNEDYIIEVVRSVLVTPSIQVVKPNK | not soluble
